In patent US20080207488A1, “Method for Detecting Peptides Comprising a Cross-B Structure” (priority 2005, published 2008):

Key:
[1] = molecular target: T1, tPA (Homo sapiens, UniProt P00750); test: Plasminogen-activation assay (tPA-mediated Plg to Pls, S-2251); type: biochemical; conditions: for tPA activating potential of native and denatured glucagon and Etanercept: FIG. 6E, G
T1 construct: purchased Boehringer-Ingelheim (Actilyse, Alteplase)
Description: (§1) Plasmin (Pls) activity was assayed as described^7. Peptides and proteins that were tested for their stimulatory ability were regularly used at 100 μg ml^−1. […] Chromogenic substrate S-2251 (Chromogenix, Instrumentation Laboratory SpA, Milano, Italy) was used to measure Pls activity. Conversion of zymogen factor XII (#233490, Calbiochem, EMD Biosciences, Inc., San Diego, Calif.) to proteolytically active factor XII (factor XIIa) was assayed by measurement of the conversion of chromogenic substrate Chromozym-PK (Roche Diagnostics, Almere, The Netherlands) by kallikrein. Chromozym-PK was used at a concentration of 0.3 mM. Factor XII, human plasma prekallikrein (#529583, Calbiochem) and human plasma cofactor high-molecular weight kininogen (#422686, Calbiochem) were used at concentrations of 1 μg ml^−1. […] Assays were performed using microtiter plates (Costar, Cambridge, Mass., USA). Peptides and proteins were tested for their ability to activate factor XII. 150 μg ml^−1 kaolin, an established activator of factor XII was used as positive control and solvent (H2O) as negative control. The conversion of Chromozym-PK was recorded kinetically at 37° C. for at least 60 minutes. Assays were done in duplicate. […] Alternatively, chromogenic substrate S-2222 (Chromogenix) was used to follow the activity of factor XII itself. With S-2222, activation of factor XII in plasma was measured, using 60% v/v plasma, diluted with substrate and H2O with or without potential cofactor. Furthermore, auto-activation of factor XII was measured by incubating 53 μg ml^−1 purified factor XII in 50 mM Tris-HCl buffer pH 7.5 with 1 mM EDTA and 0.001% v/v Triton-X100, with S-2222 and H2O with or without potential cofactor.
(§2) Formulated protein therapeutics were obtained from the local hospital pharmacy and were used as supplied by the manufacturers. […] Lyophilized therapeutics were dissolved according to the manufacturers recommendations. […] Other protein therapeutics were only kept at 4° C., and assayed for the presence of cross-β structure conformation at shown time points. Enhancement in fluorescence of ThT and Congo red was measured with all formulated protein therapeutics. For this purpose, proteins were diluted to the indicated concentrations. […] Zinc-insulin was diluted tenfold in the activation assay, GH was diluted to a final concentration of 500 μg ml^−1. Activation of factor XII and prekallikrein by the therapeutics was tested in the chromogenic factor XII assay (see above). […] After coating, plates were blocked with Blocking Reagent (Roche Diagnostics, Almere, The Netherlands).
Purification of β2-glycoprotein I (β2GPI) was performed according to established methods^11,12. Recombinant human β2GPI was made using insect cells and purified as described^11. Plasma derived β2GPI as used in a factor XII ELISA, the chromogenic Plg-activation assay and in the anti-phospholipid syndrome antibody ELISA (see below), was purified from fresh human plasma as described^12.
(§3) To prepare structurally altered ovalbumin (OVA) with amyloid cross-β structure conformation, purified OVA (Sigma, A-7641, lot 071k7094) was heated to 85° C. One mg ml^−1 OVA in 67 mM NaPi buffer pH 7.0, 100 mM NaCl, was heated for two cycles in PCR cups in a PTC-200 thermal cycler (MJ Research, Inc., Waltham, Mass., USA). In each cycle, OVA was heated from 30 to 85° C. at a rate of 5° C./min. Native OVA (nOVA) and heat-denatured OVA (dOVA) were tested in the ThT fluorescence assay and in the Plg-activation assay. In the fluorescence assay and in the Plg-activation assay, 25 and 100 μg ml^−1 nOVA and dOVA were tested, respectively. TEM images of nOVA and dOVA were taken to check for the presence of large aggregates. […] MSA (#126674, Calbiochem) was dissolved in 8 M urea, 100 mM Tris-HCl pH 8.2, at 10 mg ml^−1 final concentration.

[2] = Stability testing of biopharmaceuticals under denaturing conditions (ThT fluorescence, tPA activation); type: physicochemical; conditions: ThT at 25 μg/mL, tPA activation at 100 μg/mL
Description: To mimic accelerated stability testing several therapeutics were exposed to denaturing conditions and assayed for amyloid-like properties before and after treatment by tPA activation assay at 100 μg/mL protein and ThT fluorescence enhancement assay at 25 μg/mL protein. For this purpose, 5 mg/mL Glucagon (Glucagen; Novo Nordisk Farma B.V., Alphen aan de Rijn, The Netherlands) was incubated at 37° C. in 0.01 M HCl for 48 hours. One mg/mL Etanercept (Enbrel; Wyeth Pharmaceuticals B.V., Hoofddorp, The Netherlands) in 67 mM sodium phosphate buffer, 100 mM NaCl pH 7.0 was gradually heated from 30° C. to 85° C. over a period of 12 minutes and afterwards cooled to 4° C. for 5 minutes, this treatment was repeated 4 times. Abciximab (Reopro; Centocor B.V., Leiden, The Netherlands) and Infliximab (Remicade; Schering-Plough B.V., Utrecht, The Netherlands) were incubated at 65° C. for 16 and 72 hours, respectively.

[3] = Thioflavin T fluorescence; type: physicochemical; conditions: for Fluorescence (a.u. +/− SD) ThT: marketed biopharmaceutical within expiry limits, five μL tested
Description: Fluorescence of ThT-protein/peptide adducts was measured as follows. […] Fluorescence was measured at 485 nm upon excitation at 435 nm. Background signals from buffer, buffer with ThT and protein/peptide solution without ThT were subtracted from corresponding measurements with protein solution incubated with ThT. […] Fluorescence was measured in triplicate on a Hitachi F-4500 fluorescence spectrophotometer (Ltd., Tokyo, Japan).
as §2
as §3, with “concentration. Dithiothreitol (DTT) was added to a final concentration of 10 mM. Air was replaced by N2 and the solution was incubated for 2 h at room temperature. Then, the solution was transferred to ice and iodoacetamide was added from a 1 M stock to a final concentration of 20 mM. […] Alkyl-MSA was dialyzed against H2O before use. […] In the ThT-fluorescence assay 25 μg ml^−1 nMSA and alkyl-MSA were tested, and in the Plg-activation assay 100 μg ml^−1 was tested. The presence of aggregates or fibrils was analyzed using TEM. […]” for “concentration.”
(§4) Protein therapeutics were obtained from the local hospital pharmacy and analyzed within the expiry limits as stated by the manufacturers.

[4] = molecular target: T1, tPA; test: tPA/plasminogen activation assay (400 pM tPA); type: biochemical; conditions: % of standardized positive control (denatured γ-globulins 100 μg/ml); 1:10 diluted samples
Description: β2-GPI was reduced and alkylated as follows. Six hundred forty μl of β2-GPI stock was mixed with 640 μl of 8 M Urea (cooled solution) in 0.1 M Tris pH=8.2. The solution was degassed with N2 gas for approximately 6 minutes. From a 1 M DTT stock 12.8 μl was added to the solution, mixed and incubated for 3 hours at room temperature. A 1 M Iodoacetamide (Sigma; 1-6125) was prepared, of which 25.6 μl was added to the β2-GPI reaction mixture. The solution was subsequently dialysed against PBS. […] Signals obtained with alkyl-62gpi are compared with those obtained with native β2gpi starting material.
Exiqon Peptide Immobilizer plates were blocked for 1 hour with PBS, 1% Tween20 and rinsed twice with distilled water. The conversion of the chromogenic substrate S-2251 (Chromogenix, Italy) by plasmin was kinetically measured at 37° C. on a Spectramax340 microplate reader at a wavelength of 405 nm. […] Denatured γ-globulins (100 μg/ml) with amyloid-like structure was used as reference and positive control. Lyophilized γ-globulins (Sigma, MO, USA) were dissolved in a 1(:)1 volume ratio of 1,1,1,3,3,3-hexafluoro-2-propanol and trifluoro-acetic acid and subsequently dried under air. Dried γ-globulins was dissolved in H2O to a final concentration of 1 mg/ml and kept at room temperature for at least three days and subsequently stored at −20° C.
as §4

[5] = Congo red fluorescence; type: physicochemical; conditions: for Fluorescence (a.u. +/− SD) CR: marketed biopharmaceutical within expiry limits, five μL tested; for enhancement of Congo red fluorescence: therapeutics stored at 4° C.
Description: Background signals from buffer, buffer with Congo red and protein/peptide solution without Congo red were subtracted from corresponding measurements with protein solution incubated with Congo red. Fluorescence was measured in triplicate on a Hitachi F-4500 fluorescence spectrophotometer (Ltd., Tokyo, Japan).
as §2, §4

[6] = molecular target: T1, tPA; test: tPA binding assay with immobilized biopharmaceuticals in an ELISA; conditions: therapeutic coated 1:10; one-site binding fit
Description: Nunc Immobilizer plates (Nalge Nunc, #436013, Rochester, N.Y., USA) were coated with 50 μL containing 5 μg/mL of sample protein (unless indicated otherwise) in 100 mM NaHCO3, pH 9.6, 0.05% m/v NaN3 for 1 hour at room temperature. Plates were washed twice with Tris buffered saline pH 7.2 containing 0.1% Tween20 (TBST) and blocked with PBS containing 1% Tween20 for 1 hour at room temperature. […] Plates were washed five times with TBST and incubated with peroxidase labeled anti-mouse immunoglobulins (RAMPO; DAKOCytomation, Glostrup, Denmark) diluted 1:3000 in PBST for 30 minutes at room temperature. Plates were washed five times with PBS 0.1% Tween20, and stained with 100 μL/well of tetramethyl-benzidine (TMB) substrate (Biosource Europe, Nivelles, Belgium). The reaction was terminated with 50 μL/well of 2 M H2SO4 and substrate conversion was read at 450 nm on a Spectramax340 microplate reader. Curves were fitted with a one-site binding model (GraphPad Prism version 4.02 for Windows, Graphpad Software, CA, USA) from which Kd and Bmax were determined.
as §4

[7] = molecular target: T1, tPA; test: tPA ELISA with coated protein therapeutics; type: binding; conditions: 5 μg ml^−1 coated, stored at 4° C.
Description: as §2

[8] = molecular target: T2, factor XII (Homo sapiens, UniProt P00748); test: Chromogenic factor XII/prekallikrein activation assay (Chromozym-PK); type: biochemical
T2 construct: purchased Calbiochem, EMD Biosciences #233490
T2 sequence (P00748 20-615): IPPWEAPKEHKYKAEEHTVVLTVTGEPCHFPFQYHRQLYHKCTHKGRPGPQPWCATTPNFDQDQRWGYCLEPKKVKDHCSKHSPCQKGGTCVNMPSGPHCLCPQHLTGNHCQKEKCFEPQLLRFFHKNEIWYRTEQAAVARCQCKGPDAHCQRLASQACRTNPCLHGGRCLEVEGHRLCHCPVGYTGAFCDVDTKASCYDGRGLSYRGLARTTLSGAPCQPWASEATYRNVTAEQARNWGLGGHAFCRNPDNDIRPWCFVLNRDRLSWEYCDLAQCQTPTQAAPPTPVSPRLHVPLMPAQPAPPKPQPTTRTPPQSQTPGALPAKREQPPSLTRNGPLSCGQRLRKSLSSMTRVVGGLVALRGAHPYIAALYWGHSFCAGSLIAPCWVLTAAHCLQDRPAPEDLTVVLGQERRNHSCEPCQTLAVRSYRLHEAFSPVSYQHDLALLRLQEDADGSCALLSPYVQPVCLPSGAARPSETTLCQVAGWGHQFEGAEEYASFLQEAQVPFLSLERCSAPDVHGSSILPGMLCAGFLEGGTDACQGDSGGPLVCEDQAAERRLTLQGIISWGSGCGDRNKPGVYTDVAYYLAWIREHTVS
Description: as §1, §2

T1 sequence (P00750 36-562): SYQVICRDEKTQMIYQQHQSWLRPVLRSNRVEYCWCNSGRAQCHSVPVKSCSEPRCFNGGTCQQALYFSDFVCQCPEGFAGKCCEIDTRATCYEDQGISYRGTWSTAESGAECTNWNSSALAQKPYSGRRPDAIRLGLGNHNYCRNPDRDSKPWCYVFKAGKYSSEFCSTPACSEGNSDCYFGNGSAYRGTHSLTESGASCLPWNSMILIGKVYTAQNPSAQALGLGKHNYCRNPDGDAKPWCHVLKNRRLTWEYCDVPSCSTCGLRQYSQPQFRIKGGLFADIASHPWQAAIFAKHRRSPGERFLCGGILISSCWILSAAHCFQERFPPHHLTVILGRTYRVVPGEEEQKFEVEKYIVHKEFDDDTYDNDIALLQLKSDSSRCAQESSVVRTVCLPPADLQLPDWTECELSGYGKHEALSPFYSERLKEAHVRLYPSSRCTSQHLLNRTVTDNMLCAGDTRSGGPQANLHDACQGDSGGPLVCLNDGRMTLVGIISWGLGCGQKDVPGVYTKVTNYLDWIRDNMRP

Substance	tPA activating potential of native and denatured glucagon and Etanercept [1]	amyloid-like properties after exposure to harsh denaturing conditions (low pH, heat) [2]	Fluorescence (a.u. +/− SD) ThT [3]	tPA activation Max. Activation (%) [4]	Fluorescence (a.u. +/− SD) CR [5]	tPA activation by protein therapeutics ([1]; stored at 4° C., GH 500 μg ml^−1, zinc-insulin diluted tenfold)	enhancement of Congo red fluorescence [5]	tPA Binding Bmax (OD450 nm) [6]	enhancement of ThT fluorescence ([3]; therapeutics stored at 4° C.)	binding of tPA to immobilized therapeutic [7]	Congo red fluorescence of gelatin ([5]; stored at 4° C. and 37° C.)	factor XII activation by gelatin ([8]; kept at 37° C.)	factor XII/prekallikrein activation by protein therapeutics ([8]; stored at 4° C.)	ThT fluorescence enhancement of native and denatured proteins ([3]; 25 μg ml^−1)
Glucagon: human glucagon (Glucagen, Novo Nordisk)	has some tPA activating potential	amyloid-like properties are adopted	48 +/− 1 a.u.	11.25%										
Infliximab: human-murine chimeric monoclonal antibody (Remicade-infliximab)		amyloid-like properties are adopted	19 +/− 1 a.u.	0%	67 +/− 2 a.u.									
Somatropin: human growth hormone (GH) (Genotropin, Pharmacia)			1317 +/− 10 a.u.		429 +/− 2 a.u.	induced tPA activation	to some extent	0.9369 OD450 nm	enhance fluorescence of ThT	binding of tPA was established				
gelatin							enhanced the fluorescence of Congo red			binding of tPA was established	enhanced Congo red fluorescence in a storage temperature dependent manner	activated factor XII	not	
Etanercept	induces some tPA activation	amyloid-like properties are adopted	23 +/− 3 a.u.	0%										gave some ThT fluorescence enhancement
